Test [1] concerns the target T1, MBP-PspA-BAA658-FL (Streptococcus pneumoniae strain BAA-658).
T1 construct: Tested as cleared E. coli lysate coated on ELISA plates; also called full BAA-658 peptide; strain BAA-658 FL
The experiment in a line: ELISA on plates coated with E. coli lysate holding the MBP-tagged protein, antibody at 1 μg/mL. (In an ELISA, binding on a coated surface is turned into a signal by an enzyme label.)

For test [2], the target named is T2, synthetic peptide BAA658-PR4 (Streptococcus pneumoniae strain BAA-658, SMILES …).
T2 peptide: {Biotin-Ahx}-KPAPAPQPAPAPKPE-NH2
Put plainly: ELISA, biotinylated peptide on NeutrAvidin plates, antibody at 1 μg/mL.

Test [3] concerns the target T3, synthetic peptide BAA658-PR3 (Streptococcus pneumoniae strain BAA-658, SMILES …).
T3 peptide: {Biotin-Ahx}-EQPAEQPKPAPAPQP-NH2
The test is described as above.

Test [4] addresses T4, MBP-PspA-BAA658-S4 (Streptococcus pneumoniae strain BAA-658).
T4 construct: Tested as cleared E. coli lysate coated on ELISA plates; also called MBP-BAA658(S4)
Put plainly: ELISA on plates coated with E. coli lysate holding the MBP-tagged fragment, antibody at 1 μg/mL.

Test [5] addresses T5, MBP-PspA-BAA658-S3 (Streptococcus pneumoniae strain BAA-658).
T5 construct: Tested as cleared E. coli lysate coated on ELISA plates; also called MBP-BAA658(S3)
Described as above.

For test [6], the target named is T6, recombinant PspA-D39 with C-terminal His-tag (Streptococcus pneumoniae strain D39).
T6 construct: Made in E. coli BL21(DE3), purified on Ni Sepharose; immobilized on a CM5 chip in the SPR assay; also called pelB-PspA(D39)-His; PspA-6xHis (D39)
T6 chain: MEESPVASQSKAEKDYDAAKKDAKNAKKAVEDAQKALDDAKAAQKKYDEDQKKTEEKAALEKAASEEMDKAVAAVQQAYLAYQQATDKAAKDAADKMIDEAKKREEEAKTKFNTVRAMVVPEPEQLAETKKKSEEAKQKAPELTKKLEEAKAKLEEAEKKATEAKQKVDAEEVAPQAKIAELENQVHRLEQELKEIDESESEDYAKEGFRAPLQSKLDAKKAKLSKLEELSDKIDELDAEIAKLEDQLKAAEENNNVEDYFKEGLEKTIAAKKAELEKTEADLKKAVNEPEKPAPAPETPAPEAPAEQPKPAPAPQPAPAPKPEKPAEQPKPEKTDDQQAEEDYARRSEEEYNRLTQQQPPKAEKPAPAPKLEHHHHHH
Put plainly: SPR, Biacore 3000, PspA immobilized on CM5 chip, antibody as analyte, bivalent binding model (KD1 = kd1/ka1). A general note: SPR reads the build-up and loss of mass on a sensor chip optically.

Test [7] has as its target recombinant PspA-BAA658 (Streptococcus pneumoniae strain BAA-658). The test is described as above.
In test [8] the target is T7, recombinant PspA-TIGR4 with C-terminal His-tag (Streptococcus pneumoniae strain TIGR4).
T7 construct: Made in E. coli BL21(DE3), purified on Ni Sepharose; immobilized on a CM5 chip in the SPR assay; also called pelB-PspA(TIGR4)-His
T7 chain: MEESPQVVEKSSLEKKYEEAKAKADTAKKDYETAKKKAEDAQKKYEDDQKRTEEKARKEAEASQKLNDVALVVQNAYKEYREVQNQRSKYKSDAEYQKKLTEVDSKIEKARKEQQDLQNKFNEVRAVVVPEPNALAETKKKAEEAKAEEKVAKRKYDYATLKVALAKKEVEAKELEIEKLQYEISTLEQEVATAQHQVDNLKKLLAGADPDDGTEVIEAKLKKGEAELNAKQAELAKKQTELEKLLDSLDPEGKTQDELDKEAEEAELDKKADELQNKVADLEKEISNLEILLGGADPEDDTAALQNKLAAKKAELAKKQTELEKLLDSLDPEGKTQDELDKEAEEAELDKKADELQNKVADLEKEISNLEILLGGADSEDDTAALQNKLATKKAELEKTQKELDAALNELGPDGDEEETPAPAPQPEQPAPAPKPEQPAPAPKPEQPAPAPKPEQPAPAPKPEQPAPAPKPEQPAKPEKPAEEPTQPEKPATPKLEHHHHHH
The test is described as above.

In test [9] the target is T2, synthetic peptide BAA658-PR4. The experiment in a line: ELISA, biotinylated peptide on NeutrAvidin plates.
Test [10] concerns the target T8, synthetic peptide BAA658-PR2 (Streptococcus pneumoniae strain BAA-658, SMILES …).
T8 peptide: {Biotin-Ahx}-TPAPAPKPEQPAEQPK-NH2
The experiment in a line: ELISA, biotinylated peptide on NeutrAvidin plates.

The target of test [11] is T9, synthetic peptide BAA658-PR1 (Streptococcus pneumoniae strain BAA-658, SMILES …).
T9 peptide: {Biotin-Ahx}-PEKPAEETPAPAPKPEQ-NH2
The experiment in a line: ELISA, biotinylated peptide on NeutrAvidin plates.

Test [12] concerns the target T10, synthetic peptide BAA658-PR1.2 (Streptococcus pneumoniae strain BAA-658, SMILES …).
T10 peptide: {Biotin-Ahx}-PEKPAEETPAPAPKPEQPA-NH2
Put plainly: ELISA, biotinylated peptide on NeutrAvidin plates.

For test [13], the target named is T3, synthetic peptide BAA658-PR3. Put plainly: ELISA, biotinylated peptide on NeutrAvidin plates.
The target of test [14] is T11, MBP-PspA-BAA658-S1 (Streptococcus pneumoniae strain BAA-658).
T11 construct: Tested as cleared E. coli lysate coated on ELISA plates; also called MBP-BAA658(S1)
The experiment in a line: ELISA on plates coated with E. coli lysate holding the MBP-tagged fragment.

The target of test [15] is T12, MBP-PspA-BAA658-S2 (Streptococcus pneumoniae strain BAA-658).
T12 construct: Tested as cleared E. coli lysate coated on ELISA plates; also called MBP-BAA658(S2)
The description is as above.

The target of test [16] is T5, MBP-PspA-BAA658-S3. The test is described as above.
Test [17] addresses T8, synthetic peptide BAA658-PR2. The experiment in a line: ELISA, biotinylated peptide on NeutrAvidin plates, antibody at 1 μg/mL.
In test [18] the target is T10, synthetic peptide BAA658-PR1.2. The test is described as above.

*: point of attachment. Biotin = O=C1N[C@H]2[C@H](CS[C@H]2CCCCC(=O)*)N1; Ahx = NCCCCCC(=O)O

B1: anti-PspA mouse monoclonal antibody 140H1 (antibody, V domains shown)
VH: QIQLVQSGPELKKPGETVRISCKASGYTFTTAGMQWVQKVPGKGLQWIGWINTHSGVPTYAEDFKGRIAFSLETSASAAYLQISNLKDEDTATYFCGRSGTGYAMDYWGQGTSVIVSS
VL: DTVMSQSPSSLVVSVGEKVSMSCKSSQNLLYTNNQKNYLAWYQQKPGQSPKLLIYWASTRESGVPDRFTGSGSGTDFTLTITSVKAEDLAVYYCQQYYTYPYTFGGGTKLEIK
notes: Hybridoma antibody, mouse IgG1, kappa, raised against PspA-D39; also called clone 140H1
For B1, the binding result in test [1], in [2], in [3], in test [4] and in test [5] was “binds” each time. The Kd in test [6], in test [7] and in test [8] was below 100 nM in each case.

B2: anti-PspA mouse monoclonal antibody 140G1 (antibody, V domains shown)
VH: QVQLKESGPGLVAPSQSLSITCTVSGFSLIGYGVNWVRQPPGKGLEWLGMIWGDGSTDYNLVLKSRLSINKDNSKSQVFLQMNSLQTDDTARYYCARGPQWGFAYWGQGTLVSVSA
VL: DIVMSQSPSSLAVSAGEKVTMSCKSSQSLLNSRTRKNYLAWYQQKPGQSPKLLIYWASTRESGVPDRFTGSGSGTDFTLTISSVQAEDLAVYYCKQSYNLPTFGGGTKLEIK
notes: Hybridoma antibody, mouse IgG1, kappa, raised against PspA-D39; also called clone 140G1
Regarding B2, the binding result in test [1] is recorded as “binds”; in [9], “no binding (tested: 1 μg/mL)”; in test [10], “no binding (tested: 1 μg/mL)”; in test [11] it was “no binding (tested: 1 μg/mL)”; in test [12] it was “no binding (tested: 1 μg/mL)”; in [13], “no binding (tested: 1 μg/mL)”. Besides, the binding result is “no binding (tested: 1 μg/mL)” in test [14], “no binding (tested: 1 μg/mL)” in test [15], “no binding (tested: 1 μg/mL)” in test [16] and “binds” in [4].

B3: anti-PspA mouse monoclonal antibody 140G11 (antibody, V domains shown)
VH: QVQLKESGPGLVAPSQSLSITCTVSGFSLTGYGVNWVRQPPGKGLEWLGMIWGDGSTDYNSALKSRLSISKDNSKSQVFLKMNSLQTDDTARYYCARGPQWGFAYWGQGTLVTVSA
VL: DIVMSQSPSSLAVSAGEKVTMSCKSSQSLLNSRTRKNYLAWYQQKPGQSPKLLIYWASTRESGVPDRFTGSGSGTDFTLTISSVQAEDLAVYYCKQSYNLPTFGGGTKLEIK
notes: Hybridoma antibody, mouse IgG2a, kappa, raised against PspA-D39; also called clone 140G11
Take B3: the binding result in test [9], in test [10], in test [11], in test [12], in test [13] and in test [14] was “no binding (tested: 1 μg/mL)” in each case. Moreover, the binding result in [15] and in [16] was “no binding (tested: 1 μg/mL)” throughout.

B4: anti-PspA mouse monoclonal antibody 139G3 (antibody, V domains shown)
VH: EVQLQQSGTEVVKPGASVKLSCTASGFNIKDTYIHWVKKRPEQGLEWIGRIDPANGNTRYDPKFQGKATMTADTSSNTAYLQVSSLTSEDTAVYYCSRSDKFVWFAYWGQGTLVTVSA
VL: DIVLTQSPVSLTVYMGQRATISCRASQSVSTSSYNYIHWFQQKPGQPPKLLIKYASTLESGVPARFSGGGSGTDFTLNIHPVEEEDAATYSCQHSWEIPYTFGGGTKLEIK
notes: Hybridoma antibody, mouse IgG2a, kappa, raised against PspA-TIGR4; also called clone 139G3
In the case of B4, the binding result in [1], in test [17], in test [18], in test [4] and in test [5] was “binds” in each case.

The values are drawn from patent publication WO2014027697A1 (dated 2014).
